Measurements from paper PMC8617505.

Test system: CC1(C)S[C@@H]2[C@H](NC(=O)Cc3ccccc3)C(=O)N2[C@H]1C(=O)O
Assay: purified protein

Row | Substance | Km [µM] | kcat/Km [M⁻¹ s⁻¹]
1 | (Escherichia coli) | 27 ± 4 | 9e+06 ± 2e+06
2 | (Mycobacterium tuberculosis H37Rv) | 72.9 ± 0.8 | 640000 ± 10000
